From paper PMC5504686 (Molecular genetics and metabolism, 2017) come the findings set out here.

The series “crystal structure” concerns the molecule itself. Kind of series: crystal structure.
In series [1] the target is T1, alpha subunit of mature G172D Flavobacterium glycosylasparaginase (Flavobacterium, UniProt Q47898 46-196).
T1 sequence (looked up): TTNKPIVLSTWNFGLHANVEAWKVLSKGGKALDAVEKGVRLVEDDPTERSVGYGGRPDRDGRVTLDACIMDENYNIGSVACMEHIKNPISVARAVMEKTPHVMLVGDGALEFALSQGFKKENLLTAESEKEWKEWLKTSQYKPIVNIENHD
Kind of series: crystal structure.

B1: mature form of the G172D mutant of Flavobacterium glycosylasparaginase (one alpha and one beta chain) (complex)
chain 1: T1 sequence (looked up)
chain 2: TIGMIALDAQGNLSGACTTSDMAYKMHGRVGDSPIIGAGLFVDNEIGAATATGHGEEVIRTVGTHLVVELMNQGRTPQQACKEAVERIVKIVNRRGKNLKDIQVGFIALNKKGEYGAYCIQDGFNFAVHDQKGNRLETPGFALK
With B1, the binding result in the series “crystal structure” is “binds”.

B2: beta subunit of mature G172D Flavobacterium glycosylasparaginase (domain or fragment, UniProt Q47898 197-340, looked up)
chain: B1 chain 2
As to B2, in series [1], the binding result was “binds”.
